T1: POLA1^FL (subunit of PP^FL) (human, UniProt P09884 1-1462)
T1 construct: the POLA1 chain of m3; Always present with POLA2, PRIM1 and PRIM2; written alone for subunit-to-subunit cross-links; source: Tni insect cells (baculovirus), purified as part of PP^FL
T1 sequence (looked up): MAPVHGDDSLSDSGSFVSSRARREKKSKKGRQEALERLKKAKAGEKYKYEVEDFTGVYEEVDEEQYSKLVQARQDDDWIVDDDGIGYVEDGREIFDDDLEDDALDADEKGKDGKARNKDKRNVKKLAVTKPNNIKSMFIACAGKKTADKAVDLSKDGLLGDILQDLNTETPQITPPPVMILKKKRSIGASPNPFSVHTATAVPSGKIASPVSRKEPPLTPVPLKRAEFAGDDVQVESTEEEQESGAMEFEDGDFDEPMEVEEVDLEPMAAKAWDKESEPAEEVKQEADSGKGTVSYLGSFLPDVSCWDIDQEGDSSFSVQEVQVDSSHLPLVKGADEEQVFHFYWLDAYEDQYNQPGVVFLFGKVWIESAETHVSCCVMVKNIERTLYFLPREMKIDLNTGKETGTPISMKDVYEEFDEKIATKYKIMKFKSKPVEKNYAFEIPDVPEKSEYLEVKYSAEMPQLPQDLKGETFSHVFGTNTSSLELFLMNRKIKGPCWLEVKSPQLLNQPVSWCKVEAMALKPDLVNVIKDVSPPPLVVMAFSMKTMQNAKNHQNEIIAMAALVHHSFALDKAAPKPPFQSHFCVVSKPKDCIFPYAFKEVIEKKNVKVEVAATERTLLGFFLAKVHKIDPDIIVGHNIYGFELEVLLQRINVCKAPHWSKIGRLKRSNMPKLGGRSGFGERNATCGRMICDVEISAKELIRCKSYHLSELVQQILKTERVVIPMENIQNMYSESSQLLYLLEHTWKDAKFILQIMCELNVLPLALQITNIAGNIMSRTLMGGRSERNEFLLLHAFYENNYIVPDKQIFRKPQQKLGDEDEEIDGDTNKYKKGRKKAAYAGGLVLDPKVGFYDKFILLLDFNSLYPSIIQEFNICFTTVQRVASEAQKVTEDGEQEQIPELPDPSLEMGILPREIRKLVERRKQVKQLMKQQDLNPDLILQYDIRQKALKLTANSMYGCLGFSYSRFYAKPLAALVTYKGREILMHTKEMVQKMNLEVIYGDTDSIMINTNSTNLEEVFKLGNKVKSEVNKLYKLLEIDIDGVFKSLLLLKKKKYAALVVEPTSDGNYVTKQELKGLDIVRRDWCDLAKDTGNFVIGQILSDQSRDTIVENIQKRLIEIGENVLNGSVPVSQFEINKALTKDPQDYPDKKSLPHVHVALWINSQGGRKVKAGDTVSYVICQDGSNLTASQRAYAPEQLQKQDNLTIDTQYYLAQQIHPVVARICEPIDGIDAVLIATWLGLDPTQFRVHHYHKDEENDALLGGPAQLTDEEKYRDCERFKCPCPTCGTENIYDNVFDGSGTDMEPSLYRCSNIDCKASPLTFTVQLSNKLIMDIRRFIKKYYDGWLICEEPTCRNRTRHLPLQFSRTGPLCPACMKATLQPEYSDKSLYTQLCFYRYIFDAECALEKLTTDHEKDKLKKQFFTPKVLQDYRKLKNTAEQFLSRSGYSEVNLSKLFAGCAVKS

B1: CTC1 (subunit of the CST complex) (natural protein, human)
chain: MAAGRAQVPSSEQAWLEDAQVFIQKTLCPAVKEPNVQLTPLVIDCVKTVWLSQGRNQGSTLPLSYSFVSVQDLKTHQRLPCCSHLSWSSSAYQAWAQEAGPNGNPLPREQLLLLGTLTDLSADLEQECRNGSLYVRDNTGVLSCELIDLDLSWLGHLFLFPRWSYLPPARWNSSGEGHLELWDAPVPVFPLTISPGPVTPIPVLYPESASCLLRLRNKLRGVQRNLAGSLVRLSALVKSKQKAYFILSLGRSHPAVTHVSIIVQVPAQLVWHRALRPGTAYVLTELRVSKIRGQRQHVWMTSQSSRLLLLKPECVQELELELEGPLLEADPKPLPMPSNSEDKKDPESLVRYSRLLSYSGAVTGVLNEPAGLYELDGQLGLCLAYQQFRGLRRVMRPGVCLQLQDVHLLQSVGGGTRRPVLAPCLRGAVLLQSFSRQKPGAHSSRQAYGASLYEQLVWERQLGLPLYLWATKALEELACKLCPHVLRHHQFLQHSSPGSPSLGLQLLAPTLDLLAPPGSPVRNAHNEILEEPHHCPLQKYTRLQTPSSFPTLATLKEEGQRKAWASFDPKALLPLPEASYLPSCQLNRRLAWSWLCLLPSAFCPAQVLLGVLVASSHKGCLQLRDQSGSLPCLLLAKHSQPLSDPRLIGCLVRAERFQLIVERDVRSSFPSWKELSMPGFIQKQQARVYVQFFLADALILPVPRPCLHSATPSTPQTDPTGPEGPHLGQSRLFLLCHKEALMKRNFCVPPGASPEVPKPALSFYVLGSWLGGTQRKEGTGWGLPEPQGNDDNDQKVHLIFFGSSVRWFEFLHPGQVYRLIAPGPATPMLFEKDGSSCISRRPLELAGCASCLTVQDNWTLELESSQDIQDVLDANKSLPESSLTDLLSDNFTDSLVSFSAEILSRTLCEPLVASLWMKLGNTGAMRRCVKLTVALETAECEFPPHLDVYIEDPHLPPSLGLLPGARVHFSQLEKRVSRSHNVYCCFRSSTYVQVLSFPPETTISIPLPHIYLAELLQGGQSPFQATASCHIVSVFSLQLFWVCAYCTSICRQGKCTRLGSTCPTQTAISQAIIRLLVEDGTAEAVVTCRNHHVAAALGLCPREWASLLDFVQVPGRVVLQFAGPGAQLESSARVDEPMTMFLWTLCTSPSVLRPIVLSFELERKPSKIVPLEPPRLQRFQCGELPFLTHVNPRLRLSCLSIRESEYSSSLGILASSC
notes: human CTC1; the CTC1 chain of m1; Always present with STN1 and TEN1; written alone for subunit-to-subunit contacts; source: Tni insect cells (baculovirus), purified as part of CST; not shown: His6, N-terminal, cleaved; MBP, N-terminal, cleaved
B2: His6-MBP-PreSc-POLA1^N (domain or fragment, human, UniProt P09884 1-339, looked up)
chain: MAPVHGDDSLSDSGSFVSSRARREKKSKKGRQEALERLKKAKAGEKYKYEVEDFTGVYEEVDEEQYSKLVQARQDDDWIVDDDGIGYVEDGREIFDDDLEDDALDADEKGKDGKARNKDKRNVKKLAVTKPNNIKSMFIACAGKKTADKAVDLSKDGLLGDILQDLNTETPQITPPPVMILKKKRSIGASPNPFSVHTATAVPSGKIASPVSRKEPPLTPVPLKRAEFAGDDVQVESTEEEQESGAMEFEDGDFDEPMEVEEVDLEPMAAKAWDKESEPAEEVKQEADSGKGTVSYLGSFLPDVSCWDIDQEGDSSFSVQEVQVDSSHLPLVKGADEEQ
notes: human POLA1 N-terminal region, POLA1^N, 1–339 aa in the methods (1–335 aa in the results); MBP served as a mass label in negative-stain EM; also called MBP-POLA1^N; MBP-tagged POLA1^N; source: Tni insect cells (baculovirus), purified (Ni-NTA, SEC); not shown: His6, N-terminal, kept; MBP, N-terminal, kept

Experiments:
Details in all cases: both partners purified
[1] = target: T1, POLA1^FL (subunit of PP^FL); assay: cross-linking; CX-MS of the SEC-reconstituted CST–PP^FL complex with DSS (0.35–0.75 mM, 25 °C, 30 min), 1 mg/mL
[2] = target: B1; assay: cross-linking; CX-MS of the SEC-reconstituted CST–POLA1^N complex with BS3 (0.35–0.75 mM, 25 °C, 30 min), 1 mg/mL
[3] = target: T2, CTC1–STN1–TEN1 (CST) complex (human, UniProt Q2NKJ3 1-1217; Q9H668 1-368; Q86WV5 1-123); assay: SEC; purified proteins mixed (PP^FL and CST equimolar; CST with twofold molar excess of His6-MBP-POLA1^N), 1 h at 4 °C, HiLoad Superdex 200 16/600 PG, 20 mM HEPES pH 7.5, 150 mM NaCl, 0.5 mM TCEP, 5% glycerol
T2 construct: human CTC1; human STN1; human TEN1; Expressed from pBIG1a(His6-MBP-PreSc-CTC1/STN1/TEN1); tag removed with rhinovirus 3C protease; source: Tni insect cells (baculovirus), purified (Ni-NTA, 3C protease cleavage, heparin, SEC); not shown: His6, N-terminal, cleaved; MBP, N-terminal, cleaved; copies: + +
T2 sequence (Q9H668 whole entry, chain 2 of 2): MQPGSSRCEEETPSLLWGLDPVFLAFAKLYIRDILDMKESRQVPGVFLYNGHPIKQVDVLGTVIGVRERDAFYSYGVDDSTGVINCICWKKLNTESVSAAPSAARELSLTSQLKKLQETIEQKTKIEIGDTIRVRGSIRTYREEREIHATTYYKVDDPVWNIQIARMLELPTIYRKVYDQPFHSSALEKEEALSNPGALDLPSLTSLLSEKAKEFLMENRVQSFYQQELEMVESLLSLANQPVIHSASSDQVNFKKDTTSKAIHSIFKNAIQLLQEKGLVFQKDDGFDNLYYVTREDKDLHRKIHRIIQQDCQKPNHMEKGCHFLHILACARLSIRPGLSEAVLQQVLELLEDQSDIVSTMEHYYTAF
T2 sequence (Q86WV5 whole entry, chain 3 of 2): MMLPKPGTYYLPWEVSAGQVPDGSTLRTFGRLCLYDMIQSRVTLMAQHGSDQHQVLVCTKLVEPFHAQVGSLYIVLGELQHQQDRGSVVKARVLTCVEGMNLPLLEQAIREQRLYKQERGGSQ

Binder	binding result [1]	binding result [2]	binding result [3]
B1	binds		
B2		binds	binds

From paper PMC9371972, “Cryo-EM structure of the human CST–Polα/primase complex in a recruitment state” (Nature Structural & Molecular Biology, 2022)
